How the values were obtained:
Format in all cases: cell-based, human
[1] = system: ovarian somatic cells (OSCs); experiment: OSC induction with different BMP isoforms, marker qPCR; settings: 20 ng/mL BMP in granulosa double medium
Method: Gonadal somatic cells were induced in granulosa double medium comprising different BMP isoforms, and the expression of bipotential gonadal markers as well as that of granulosa markers were measured in the resulting cells.
The expression of bipotential gonadal markers (WT1, LHX9, GADD45G and GATA4) as well as granulosa markers (FOXL2, NR1H4 and KITLG) were measured by qPCR in the resulting cells.

[2] = system: ovarian somatic cells (OSCs); experiment: OSC induction with different FGF family members, marker expression; settings: 10 ng/mL FGF in granulosa double medium
Method: Fibroblast growth factors (FGFs) are a large family of proteins that are important for signaling events in a wide variety of processes. […] Briefly, gonadal cells were induced in granulosa doublemedium comprising different FGFs, and the expression of bipotential gonadal markers as well as that of granulosa markers were measured in the resulting cells.
The replated cells from the second intermediate population were incubated in the granulosa double medium (also referred to as gonadal induction medium or OSC induction medium) according to Table 18, with the same concentration of either FGF2, 9, 10, 16, 17, 18 or 19. The expression of bipotential gonadal markers (WT1, LHX9, GADD45G and GATA4) as well as granulosa markers (FOXL2, NR1H4 and KITLG) were measured in the resulting cells.

[3] = system: ovarian somatic cells (OSCs); experiment: Concentration titration of BMP4, follistatin and FGF2 in OSC induction, qPCR for GATA4 and FOXL2
Method: Various concentration titrations of BMP4, Follistatin and FGF were tested in OSC induction, and the resulting cells were examined for expression of bipotential gonadal markers as well as that of granulosa markers.
The OSCs were induced based on the protocols described in Example 6, but with various concentrations of BMP4. Follistatin and FGF tested.
The OSC induction conditions were first tested by varying the BMP4 concentration. […] The gene expression of resulting cells was tested by qPCR for bi-potential gonadal cell markers (GATA4) as well as for granulosa cell markers (FOXL2) (FIGS. 12A and 12B respectively). Expression of GATA4 increased with higher BMP4 concentration, and FOXL2 expression appeared to peak at 10 ng/ml of BMP4 under the conditions tested.
Four different concentrations of follistatin were then tested in OSC induction, with the concentration of BMP4 kept constant at 20 ng/ml as previously described. The gene expression of resulting cells was tested by qPCR for bi-potential gonadal cell markers (GATA4) as well as for granulosa cell markers (FOXL2) (FIGS. 12C and 12D respectively). […] The generation of mature OSCs were also examined by FOXL2 expression. […] In subsequent experiments, OSC induction in the absence or at lower concentrations of follistatin was further explored.
Five different concentrations of FGF2 were then tested in OSC induction, with the concentration of BMP4 kept constant at 20 ng/mL and follistatin removed (Ong/mL). The gene expression of resulting cells were tested by qPCR for bi-potential gonadal cells (GATA4) as well as for granulosa cells (FOXL2) (FIGS. 12E and 12F respectively). As shown by FIGS. 12E and 12F, both GATA4 expression and FOXL2 expression reached saturation at 20 ng/ml of FGF2.

B1: BMP7: BMP isoform in gonadal induction medium (protein, UniProt P18075 293-431, looked up)
Bone morphogenetic protein 7: STGSKQRSQNRSKTPKNQEALRMANVAENSSSDQRQACKKHELYVSFRDLGWQDWIIAPEGYAAYYCEGECAFPLNSYMNATNHAIVQTLVHFINPETVPKPCCAPTQLNAISVLYFDDSSNVILKKYRNMVVRACGCH
B1 was tested, and the “expression of bipotential gonadal markers (WT1, LHX9, GADD45G, GATA4) compared to BMP4” value [1] was “comparable or higher” and the “expression of granulosa markers (FOXL2, NR1H4, KITLG) compared to BMP4” value [1] was “comparable or higher”.

B2: BMP15: BMP isoform in gonadal induction medium (protein, UniProt O95972 268-392, looked up)
Bone morphogenetic protein 15: QADGISAEVTASSSKHSGPENNQCSLHPFQISFRQLGWDHWIIAPPFYTPNYCKGTCLRVLRDGLNSPNHAIIQNLINQLVDQSVPRPSCVPYKYVPISVLMIEANGSILYKEYEGMIAESCTCR
With B2 the “expression of bipotential gonadal markers (WT1, LHX9, GADD45G, GATA4) compared to BMP4” value [1] was “comparable or higher” and the “expression of granulosa markers (FOXL2, NR1H4, KITLG) compared to BMP4” value [1] was “comparable or higher”.

B3: FGF10: fibroblast growth factor family member (protein, UniProt O15520 38-208, looked up)
Fibroblast growth factor 10: QALGQDMVSPEATNSSSSSFSSPSSAGRHVRSYNHLQGDVRWRKLFSFTKYFLKIEKNGKVSGTKKENCPYSILEITSVEIGVVAVKAINSNYYLAMNKKGKLYGSKEFNNDCKLKERIEENGYNTYASFNWQHNGRQMYVALNGKGAPRRGQKTRRKNTSAHFLPMVVHS
For B3, the “expression of bipotential gonadal markers (WT1, LHX9, GADD45G, GATA4) compared to FGF2” value (“expression … compared to FGF2” below) [2] was “comparable or higher” and the “expression of granulosa markers (FOXL2, NR1H4, KITLG) compared to corresponding medium” value (shortened to “expression … compared to corresponding medium”) [2] was “comparable”.

B4: FGF17: fibroblast growth factor family member (protein, UniProt O60258 23-216, looked up)
Fibroblast growth factor 17: TQGENHPSPNFNQYVRDQGAMTDQLSRRQIREYQLYSRTSGKHVQVTGRRISATAEDGNKFAKLIVETDTFGSRVRIKGAESEKYICMNKRGKLIGKPSGKSKDCVFTEIVLENNYTAFQNARHEGWFMAFTRQGRPRQASRSRQNQREAHFIKRLYQGQLPFPNHAEKQKQFEFVGSAPTRRTKRTRRPQPLT
In the case of B4, the “expression … compared to FGF2” value [2] is reported as “comparable or higher” and the “expression … compared to corresponding medium” value [2] is reported as “comparable”.

B5: FGF18: fibroblast growth factor family member (protein, UniProt O76093 28-207, looked up)
Fibroblast growth factor 18: EENVDFRIHVENQTRARDDVSRKQLRLYQLYSRTSGKHIQVLGRRISARGEDGDKYAQLLVETDTFGSQVRIKGKETEFYLCMNRKGKLVGKPDGTSKECVFIEKVLENNYTALMSAKYSGWYVGFTKKGRPRKGPKTRENQQDVHFMKRYPKGQPELQKPFKYTTVTKRSRRIRPTHPA
For B5, the “expression … compared to FGF2” value [2] was “comparable or higher” and the “expression … compared to corresponding medium” value [2] was “comparable”.

B6: BMP4: BMP isoform in gonadal induction medium (protein, UniProt P12644 293-408, looked up)
Bone morphogenetic protein 4: SPKHHSQRARKKNKNCRRHSLYVDFSDVGWNDWIVAPPGYQAFYCHGDCPFPLADHLNSTNHAIVQTLVNSVNSSIPKACCVPTELSAISMLYLDEYDKVVLKNYQEMVVEGCGCR
For B6, the “BMP4 concentration at which FOXL2 expression peaks” value ([3]; OSC induction) was 10 ng/mL, the “concentration at which the BMP4 effect saturates for OSCs” value ([3]; OSC induction) was 20 ng/mL and the “expression of GATA4” value ([3]; higher BMP4 concentration) was “increased”.

B7: follistatin: protein component of gonadal induction medium (protein, UniProt P19883 30-344, looked up)
Follistatin: GNCWLRQAKNGRCQVLYKTELSKEECCSTGRLSTSWTEEDVNDNTLFKWMIFNGGAPNCIPCKETCENVDCGPGKKCRMNKKNKPRCVCAPDCSNITWKGPVCGLDGKTYRNECALLKARCKEQPELEVQYQGRCKKTCRDVFCPGSSTCVVDQTNNAYCVTCNRICPEPASSEQYLCGNDGVTYSSACHLRKATCLLGRSIGLAYEGKCIKAKSCEDIQCTGGKKCLWDFKVGRGRCSLCDELCPDSKSDEPVCASDNATYASECAMKEAACSSGVLLEVKHSGSCNSISEDTEEEEEDEDQDYSFPISSILEW
In the case of B7, the “GATA4 expression on removing follistatin altogether” value ([3]; 0 ng/mL follistatin, BMP4 20 ng/ml) is reported as “increase”, the FOXL2 expression ([3]; 25 ng/ml follistatin, no further increase at higher concentrations) is reported as “marginal increase” and the FOXL2 expression ([3]; higher concentrations of follistatin, BMP4 20 ng/ml) is reported as “marginal increase”.

Reference: US20250084372A1, “IN VITRO DERIVATION OF GONADAL SOMATIC CELLS” (Conception Bisosciences, Inc., priority 2020, published 2025)
